Values quoted from earlier work in paper PMC3526765.

Target: Cys30 (UniProt position 49, FFSFFCPHCYQ)
Conditions: reduced DsbA (free Cys30 thiol/thiolate); inferred from context, not stated explicitly

**Q.** With “Thiol:disulfide interchange protein DsbA (EcDsbA) (Escherichia coli (K12))” as the substance, how does the pKa read?
**A.** ~3.3
